Results on two molecules are retold here after patent publication US20250313644A1 (FUTUREGEN BIOPHARMACEUTICAL BEIJING, published 2025).

Changes are numbered by the printed parent chain.

The target in assay [1] is T1, LIGHT (UniProt O43557 74-240, limits assumed). As to the kind of experiment: ELISA, coated LIGHT, Ab 6.25 nM. The method, then:
(§1) In this experiment, ELISA was used to assess the binding ability of monoclonal antibodies to TL1A homologous molecules. Representative members of the TNF ligand superfamily, TNFα, LT-α, LIGHT and FASL, were selected for binding testing. 1 μg/mL of TNFα, LT-α, LIGHT or FASL was coated in a microplate with a carbonate buffer solution at pH=9.6, 100 μL per well, and the microplate was incubated at 4° C. overnight. The microplate was then washed 5 times with PBST, blocked with 300 μL/well of PBS containing 1% BSA, and was incubated at room temperature for 1 hour. After washing 5 times with PBST, about 100 μL each of the M701 monoclonal antibodies and the control antibodies were added to each well, and were incubated at room temperature for 1 hour. After washing 5 times with PBST, 100 μL of HRP-anti-human Fc (Sino Biological) was added to each well, and was incubated at room temperature for 1 hour. After washing 5 times with PBST, 100 μL of colorimetric substrate TMB was added to each well, and color was developed at room temperature for 10 minutes, followed by addition of 1M sulfuric acid to terminate the reaction. OD450 nm was recorded on a microplate reader.
(An ELISA detects its analyte on a solid surface through an enzyme-linked reagent.)

Assay [2] concerns the target T2, LT-α (UniProt P01374 35-205).
T2 sequence (looked up): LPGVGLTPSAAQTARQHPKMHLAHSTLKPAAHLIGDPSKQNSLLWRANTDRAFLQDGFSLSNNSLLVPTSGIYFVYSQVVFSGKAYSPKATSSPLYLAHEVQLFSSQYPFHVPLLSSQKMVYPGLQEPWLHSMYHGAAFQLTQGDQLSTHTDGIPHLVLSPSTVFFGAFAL
As to the kind of experiment: ELISA, coated LT-α, Ab 6.25 nM. Here is the method:
as §1

In assay [3] the target is T3, FASL (UniProt P48023 134-281, limits assumed).
T3 sequence (looked up): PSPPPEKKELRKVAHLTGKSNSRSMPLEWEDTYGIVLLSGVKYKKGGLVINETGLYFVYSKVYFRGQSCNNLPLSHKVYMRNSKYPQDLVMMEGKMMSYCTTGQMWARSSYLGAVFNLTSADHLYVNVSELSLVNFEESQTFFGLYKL
As to the kind of experiment: ELISA, coated FASL, Ab 0.391 nM. The method, then: as §1

The target of assay [4] is T4, human TL1A (HuTL1A) (human, UniProt O95150 57-251, limits assumed, biotin-labelled in some assays (site not stated)).
T4 sequence: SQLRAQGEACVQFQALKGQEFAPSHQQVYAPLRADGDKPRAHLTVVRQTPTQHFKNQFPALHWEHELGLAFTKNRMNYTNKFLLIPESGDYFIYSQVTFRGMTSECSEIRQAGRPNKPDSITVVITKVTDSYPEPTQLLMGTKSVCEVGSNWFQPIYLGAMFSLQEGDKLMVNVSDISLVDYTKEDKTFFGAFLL
As to the kind of experiment: cell-based or functional assay.

For assay [5], the target named is T3, FASL. As to the kind of experiment: ELISA, coated FASL, Ab 6.25 nM. The method, then:
as §1

The target of assay [6] is T2, LT-α. Kind of assay: ELISA, coated LT-α, Ab 1.563 nM. Here is the method: as §1
Assay [7] concerns the target T3, FASL. As to the kind of experiment: ELISA, coated FASL, Ab 0.000 nM (blank). The method, then: as §1
The target of assay [8] is T1, LIGHT. As to the kind of experiment: ELISA, coated LIGHT. The method, then:
as §1

The target of assay [9] is T5, TNFα (UniProt P01375 77-233). Kind of assay: ELISA, coated TNF-α, Ab 25 nM. Here is the method: as §1
Assay [10] has as its target T5, TNFα. Kind of assay: ELISA, coated TNF-α, Ab 100 nM. The method, then: as §1
Assay [11] deals with T2, LT-α. As to the kind of experiment: ELISA, coated LT-α, Ab 0.391 nM. The method, then:
as §1

For assay [12], the target named is T3, FASL. Kind of assay: ELISA, coated FASL, Ab 1.563 nM. Here is the method: as §1
Assay [13] addresses T5, TNFα. As to the kind of experiment: ELISA, coated TNF-α, Ab 1.563 nM. The method, then:
as §1

The target of assay [14] is T1, LIGHT. Kind of assay: ELISA, coated LIGHT, Ab 100 nM. Here is the method: as §1
Assay [15] deals with T4, human TL1A (HuTL1A). Kind of assay: ELISA: biotin-HuTL1A on streptavidin plate, antibody diluted at pH 7.4, HRP-anti-human Fc, OD450. The method, then: (§2) Corresponding antibodies were added to specific wells, and the antibodies were diluted with sodium dihydrogen phosphate-citrate buffer at pH 7.4, pH 6.0, pH 5.8, or pH 5.6. Binding assay was carried out at room temperature for 30 minutes. After the incubation, the excess antibodies were removed and the wells were washed by PBST. HRP-anti-Human Fc (Sino Biological) was then added into each well and incubated for 30 minutes to detect the bound antibody. The substrate TMB was finally added to develop color for 5-10 minutes. The color development reaction was terminated with 1M sulfuric acid. OD450 nm was recorded on a microplate reader, and the data were processed and fitted by 4 parameter logistic regression.

The target in assay [16] is T4, human TL1A (HuTL1A). Kind of assay: ELISA: biotin-HuTL1A on streptavidin plate, antibody diluted at pH 5.8, HRP-anti-human Fc, OD450. The method, then: as §2
The target in assay [17] is T6, endogenous TL1A induced in PBMC by immune complexes (UniProt O95150 72-251, limits assumed).
T6 sequence (looked up): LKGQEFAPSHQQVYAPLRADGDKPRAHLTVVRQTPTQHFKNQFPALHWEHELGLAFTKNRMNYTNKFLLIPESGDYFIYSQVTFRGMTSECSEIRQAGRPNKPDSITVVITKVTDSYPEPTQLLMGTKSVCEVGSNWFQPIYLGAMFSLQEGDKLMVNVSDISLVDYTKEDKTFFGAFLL
As to the kind of experiment: cell-based or functional assay.

T5 sequence (P01375 77-233 limits assumed): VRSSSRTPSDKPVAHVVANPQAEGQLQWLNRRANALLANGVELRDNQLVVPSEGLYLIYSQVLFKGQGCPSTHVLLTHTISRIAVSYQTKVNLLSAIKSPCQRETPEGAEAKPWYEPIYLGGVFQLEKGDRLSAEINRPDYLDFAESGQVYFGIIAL
T1 sequence (O43557 74-240 limits assumed): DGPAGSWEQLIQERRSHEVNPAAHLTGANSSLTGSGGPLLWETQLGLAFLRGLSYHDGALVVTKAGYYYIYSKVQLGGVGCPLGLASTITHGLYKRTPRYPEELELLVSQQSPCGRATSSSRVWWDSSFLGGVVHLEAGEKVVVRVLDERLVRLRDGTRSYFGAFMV

B1: M701-3966 (antibody, human IgG1, kappa, L234A L235A, V domains shown)
VH: ELQLQESGPGLVKPSETLSLTCAVSGVSFSDYHWAWIRQPPGKGLEWIGDINHRGHTNYNPSLKSRVTVSIDTSKNQFSLKLSSVTAADTAVYFCARDFPNFIFDYWGQGTLVTVSS
VL: DIQLTQSPGTLSLSPGERATLSCRASQSVSSYLAWYQQKPGQAPRLLIYGASKRATGIPDRFSGSGSGTDFTLTISRLEPEDFAVYYCQQYGDSPLTFGQGTKVEIKR
notes: Fc-engineered IgG1
Take B1: the OD450 nm in the assay with LIGHT [1] amounted to 0.0568; with LT-α [2], 0.06; with FASL [3], 0.0504; with FASL [5], 0.0525; with LT-α [6], 0.0651; in the assay with FASL [7], 0.0692. The OD450 nm was found to be 0.0593 with TNFα [9]; 0.0787 with TNFα [10]; 0.0604 with LT-α [11]; 0.0522 with FASL [12]; 0.0528 with TNFα [13]; 0.0876 in the assay with LIGHT [14]. In the assay with human TL1A (HuTL1A) [4], the “IC50 (read off the curve); SEAP reporter in HEK293T/DR3-NFκB cells with soluble TL1A, OD655” value was ~1 nM. Also, in the assay with LIGHT [8], the binding result is reported as “no binding (tested: 100 nM)”. Besides, the EC50 (read off the curve) (as a rule, the concentration needed to bring the measured effect to its halfway point) with human TL1A (HuTL1A) [15] is ~0.1 nM.

B2: M701-4007 (antibody, human IgG1, kappa, L234A L235A, V domains shown)
VH: B1 VH with Y106F
VL: B1 VL with S31T
notes: Fc-engineered IgG1
For the molecule B2, the OD450 nm stood at 0.0542 with LIGHT [1]; 0.0588 with LT-α [2]; 0.0504 with FASL [3]; 0.0523 in the assay with FASL [5]; 0.0625 with LT-α [6]; 0.0648 with FASL [7]. Moreover, the OD450 nm with TNFα [9] amounted to 0.0665; in the assay with TNFα [10], 0.079; in the assay with LT-α [11] it was 0.0576; with FASL [12] it was 0.06; in the assay with TNFα [13], 0.0588; with LIGHT [14] it was 0.0853. Moreover, the “EC50 (read off the curve)” value was ~0.7 nM with human TL1A (HuTL1A) [16] and ~0.1 nM with human TL1A (HuTL1A) [15]. Moreover, the “IC50 (read off the curve); SEAP reporter in HEK293T/DR3-NFκB cells with soluble TL1A, OD655” value with human TL1A (HuTL1A) [4] was ~1 nM. Further, in the assay with LIGHT [8], the binding result is “no binding (tested: 100 nM)”. In addition, in assay [17], the “IC50 (read off the curve); IFN-γ of PBMC stimulated with immune complex, IL-12 and IL-18” value is ~0.5 nM.
